Reference: patent US7405061

Target: antigen PIPA (human)
Assay: cell-based or functional assay

B1: monoclonal antibody PIP (antibody, V domains shown)
V domain 1: DVQLQESGPDLVKPSQSVSLTCTVTGYSITSGYGWHWIRQFPGNKLEWMGCIHYSGSTNYNPSLKSRISVTRDTSKNQFFLQLNSVTTEDTATYYCARREYGNYAMDYWGQGTSVTVSS
V domain 2: B1 V domain 1
decrease in cell proliferation of OV90 cells (MTT) with PIP at 10 ug/ml and MAb-ZAP saporin-linked secondary antibody: 50 percent
